Experimental data from patent US20230383007A1 (BIOSION, published 2023).

Columns and labels:
human TROP2-his protein [1] = biological target: T1, human TROP2-his protein (human, UniProt P09758 27-274); assay: indirect ELISA, plate coated with 1 ug/ml TROP2-his; bacterial culture supernatant
T1 construct: also called biotin labeled human TROP2-his protein
T1 sequence: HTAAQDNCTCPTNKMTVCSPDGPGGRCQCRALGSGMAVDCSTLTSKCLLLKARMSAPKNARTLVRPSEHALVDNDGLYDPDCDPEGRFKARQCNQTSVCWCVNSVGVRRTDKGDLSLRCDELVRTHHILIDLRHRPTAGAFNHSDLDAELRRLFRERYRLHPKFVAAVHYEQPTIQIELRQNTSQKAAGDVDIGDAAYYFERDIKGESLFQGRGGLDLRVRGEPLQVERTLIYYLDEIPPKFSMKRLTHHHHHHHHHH
Procedure: (§1) ELISA plates were coated with 100 μl 1 μg/ml human TROP2-his protein (in house made with SEQ ID NO: 16), or 1 μg/ml cynomolgus TROP2-his protein (in house made with SEQ ID NO: 19) in carbonate/bicarbonate buffer (pH 9.6) overnight at 4° C., washed once with wash buffer (PBS+0.05% v/v Tween-20, PBST) and then blocked with 200 μl/well blocking buffer (5% w/v non-fatty milk in PBST) for 2 hours at 37° C. Plates were washed 4 times, and respectively incubated with 100 μl bacterial culture supernatant, and sacituzumab (used as the benchmark, also referred to as BM or BM1 hereinafter, in house made with heavy chain and light chain amino acid sequences set forth in SEQ ID NOs: 17 and 18) in 5% w/v non-fatty milk in PBST at 200 ng/ml, for 40 minutes at 37° C. The plates were washed 4 times, and incubated with THE™ HA Tag Antibody [HRP], mAb, Mouse Antibody (1:5000 dilution in PBST, GenScript, Cat #A01296, 100 μl/well, for plates with bacterial culture supernatans of the disclosure) or Peroxidase AffiniPure F(ab′)₂ Fragment Goat Anti-Human IgG, Fey fragment specific (Jackson Immunoresearch, Cat #109-036-098, for plates with the benchmark), for 40 minutes at 37° C. After a final wash, plates were incubated with 100 μl/well ELISA substrate TMB (Innoreagents, Cat #TMB-S-002) at room temperature. The reaction was stopped in 3-10 minutes with 50 μl/well 1M H₂SO₄, and the absorbance of each well was read on a microplate reader using dual wavelength mode with 450 nm for TMB and 630 nm as the reference wavelength. When the OD of a sample well was 2 times higher than the OD of the blank well, the sample can be determined as positive.

[2] = biological target: T2, cynomolgus TROP2-his protein (cynomolgus, UniProt P09758 27-272 (human entry), limits assumed); assay: as above
T2 construct: also called Cyno TROP2-his; Cynomolgus monkey TROP2-his protein
T2 chain: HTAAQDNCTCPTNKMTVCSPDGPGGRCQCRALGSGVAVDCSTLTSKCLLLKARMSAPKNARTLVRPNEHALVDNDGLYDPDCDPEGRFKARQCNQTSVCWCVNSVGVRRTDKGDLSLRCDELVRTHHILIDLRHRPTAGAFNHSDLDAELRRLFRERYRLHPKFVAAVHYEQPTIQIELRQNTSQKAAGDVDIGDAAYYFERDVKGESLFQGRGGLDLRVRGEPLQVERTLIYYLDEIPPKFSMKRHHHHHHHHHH
Procedure: as §1

human TROP2-his protein [3] = biological target: T1, human TROP2-his protein; assay: indirect ELISA, plate coated with human TROP2-his; unit taken from the x axis (Con of mAb, ng/mL)
Procedure: The single domain antibodies of the disclosure were tested in the indirect ELISA for their cross-reaction with cynomolgus TROP2 protein. Briefly, 96-well micro plates were coated with 100 μl 2 μg/ml human TROP2-his protein (prepared in-house with SEQ ID NO: 16) in carbonate/bicarbonate buffer (pH 9.6) overnight at 4° C. ELISA plates were washed once with wash buffer (PBS+0.05% v/v Tween-20, PBST) and then blocked with 200 μl/well blocking buffer (5% w/v non-fatty milk in PBST) for 2 hours at 37° C. Plates were washed 4 times and incubated with 100 μl/well serially diluted anti-TROP2 antibodies of the disclosure or controls (starting at 66.7 nM, 5-fold serial dilution in 2.5% w/v non-fatty milk in PBST) for 40 minutes at 37° C. ELISA plates were washed 4 times again and incubated with Peroxidase AffiniPure F(ab′)₂ Fragment Goat Anti-Human IgG, Fey fragment specific (Jackson Immuno Research, Cat #109-036-098, 1:5000 dilution in PBST buffer, 100 μl/well) for 40 minutes at 37° C. After a final wash, plates were incubated with 100 μl/well TMB (Innoreagents) at room temperature. The reaction was stopped 3-10 minutes later at room temperature with 50 μl/well 1M H₂SO₄, and the absorbance of each well was read on a microplate reader using dual wavelength mode with 450 nm for TMB and 630 nm as the reference wavelength. The OD (450-630) values were plotted against antibody concentration. Data was analyzed using Graphpad Prism software and EC₅₀ values were reported.

human TROP2-his protein [4] = biological target: T1, human TROP2-his protein; assay: SPR Biacore T200; antibody captured on anti-human IgG CM5 chip, TROP2-his as analyte in 2-fold dilutions from 160 nM; 1:1 Langmuir fit
Excerpt: (§2) The purified anti-TROP2 mouse monoclonal antibodies (mAbs) were characterized for binding affinity and binding kinetics by Biacore T200 system (GE healthcare, Pittsburgh, PA, USA). Briefly, goat anti-human IgG (GE healthcare, Cat #BR100839, Human Antibody Capture Kit) was covalently linked to a CM5 chip (carboxy methyl dextran coated chip from GE healthcare #BR100530) via primary amines, using a standard amine coupling kit (GE healthcare, Pittsburgh, PA, USA) provided by Biacore. Un-reacted moieties on the chip (biosensor) surface were blocked with ethanolamine. The anti-TROP2 antibodies of the disclosure and the benchmark at the concentration of 2 μg/ml were respectively flowed onto the chip at a flow rate of 10 μL/min. Then, serially diluted human TROP2-his protein (prepared in-house with SEQ ID NO: 16), or cynomolgus TROP2-his protein (prepared in-house with SEQ ID NO: 19), 2-fold dilution in HBS-EP⁺ buffer (provided by Biacore) starting at 160 nM, were flowed onto the chip at a flow rate of 30 μL/min. The antigen-antibody association kinetics was followed for 2 minutes and the dissociation kinetics was followed for 10 minutes. The association and dissociation curves were fit to a 1:1 Langmuir binding model using BIAcore evaluation software.

[5] = biological target: T2, cynomolgus TROP2-his protein; assay: as above
Excerpt: as §2

human TROP2-his protein [6] = biological target: T1, human TROP2-his protein; assay: competitive ELISA: antibody pre-mixed with biotin labeled human TROP2-his, added to plate coated with the benchmark (sacituzumab analog); unit taken from the x axis (ng/mL)
Procedure: The anti-TROP2 antibodies were tested for their epitope binding in a competitive ELISA assay. Briefly, 100 μl of the benchmark at 1 μg/mL in PBS was coated on 96-well micro plates for 2 hours at 37° C. ELISA plates were washed once with wash buffer (PBS+0.05% v/v Tween-20, PBST) and then blocked with 200 μl blocking buffer (5% w/v non-fatty milk in PBST) for 2 hours at 37° C. While blocking, the anti-TROP2 antibodies of the disclosure or controls were diluted with biotin labeled human TROP2-his protein (SEQ ID NO: 16, 34 ng/mL in 2.5% w/v non-fatty milk in PBST), starting at 80 nM with a 5-fold serial dilution, and incubated at room temperature for 40 minutes. After plate washing 4 times, the antibody/TROP2-his protein mixtures were added to benchmark coated plates, 100 μl per well. After incubation at 37° C. for 40 minutes, plates were washed 4 times again using wash buffer. Then the plates were added and incubated with 100 μl Peroxidase Streptavidin (1:10000 dilution in PBST buffer, Jackson Immunoresearch, Cat #016-030-084) for 40 minutes at 37° C. Plates were washed again using wash buffer. […] The absorbance of each well was read on a microplate reader using dual wavelength mode with 450 nm for TMB and 630 nm as the reference wavelength, and the OD (450-630) values were plotted against antibody concentration. Data was analyzed using Graphpad Prism software and IC₅₀ values were reported.

B1: single domain antibody 01-5A (VHH)
VHH: QVQLVESGGGTVGAGGSLRLSCVVSGLPYERYCVAWFRQGPGKEREGVARILSDGTTSYSDSVKGRFTISKDNAKNTLYLQMNSLKSEDTATYYCAAEAFRPFTPSDGDCTTVLGIDYWGKGTLVTVSS
B1 was tested, and the “Indirect ELISA OD (450-630)” value (human TROP2-his protein [1]) was 1.03 OD (450-630), the “Indirect ELISA OD (450-630)” value [2] was 0.56 OD (450-630) and the EC50 (human TROP2-his protein [3]) was 0.0177 µg/mL. The Kd (human TROP2-his protein [4]) was 97.5 pM, the koff (human TROP2-his protein [4]) was 2.73e-05 s⁻¹ and the kon (human TROP2-his protein [4]) was 280000 M⁻¹ s⁻¹. The Kd [5] was 647 pM, the koff [5] was 0.000172 s⁻¹ and the kon [5] was 266000 M⁻¹ s⁻¹. The IC50 (human TROP2-his protein [6]) was 0.0417 µg/mL.
